Measured values published in PMC5603870 (2017).

Biological target: T1, CD20 (Homo sapiens, UniProt P11836)
T1 chain: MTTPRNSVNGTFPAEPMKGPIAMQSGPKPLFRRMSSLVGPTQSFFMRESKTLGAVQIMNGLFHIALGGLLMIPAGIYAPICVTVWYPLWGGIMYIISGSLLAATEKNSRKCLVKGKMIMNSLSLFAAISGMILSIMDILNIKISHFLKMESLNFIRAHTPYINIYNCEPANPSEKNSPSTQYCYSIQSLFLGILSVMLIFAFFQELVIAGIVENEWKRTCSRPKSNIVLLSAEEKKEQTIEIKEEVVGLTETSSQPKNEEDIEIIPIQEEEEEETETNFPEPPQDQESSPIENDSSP
Experiment: saturation binding

B1: Rituximab (antibody, V domains shown)
VH: QVQLQQPGAELVKPGASVKMSCKASGYTFTSYNMHWVKQTPGRGLEWIGAIYPGNGDTSYNQKFKGKATLTADKSSSTAYMQLSSLTSEDSAVYYCARSTYYGGDWYFNVWGAGTTVTVSA
VL: QIVLSQSPAILSASPGEKVTMTCRASSSVSYIHWFQQKPGSSPKPWIYATSNLASGVPVRFSGSGSGTSYSLTISRVEAEDAATYYCQQWTSNPPTFGGGTKLEIK
modifications: 90Y-DOTA conjugated
- Kd: 2.84 nM
